Reference: the supplement of paper PMC9233669
Fewer inactive variants are shown than the library holds.

Key:
[1] = test system: biotinyl-Met-oxazolone; test: self-aminoacylation, catalytic enhancement (BMO) (fold over background); higher = more active; k-Seq, kA / k0A0; sequences stand for … in GGGAAUGGAUCCACAUCUACGAAUUC…UUCACUGCAGACUUGACGAAGCUG
Outline: (§1)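 Working in 50 μL HEPES/NaCl/KCl/MgCl2/CaCl2 buffer with 5% acetonitrile at pH 6.9–7.0, mutagenized RNA pools (0.43 μM; 21-nt variable region) were reacted with 2–1250 μM of each biotinyl-aminoacyl-oxazolone for 90 minutes at room temperature. Streptavidin capture followed, with quantification by triplicate qPCR and Illumina sequencing. Catalytic enhancement is reported as median kA over the uncatalyzed rate, the low-activity peak of a bimodal Gaussian fit to the data.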

[2] = test system: biotinyl-Phe-oxazolone; test: self-aminoacylation, catalytic enhancement (BFO) (fold over background); higher = more active; k-Seq, kA / k0A0; sequences stand for … in GGGAAUGGAUCCACAUCUACGAAUUC…UUCACUGCAGACUUGACGAAGCUG
Outline: as §1

[3] = test system: biotinyl-Ile-oxazolone; test: self-aminoacylation, catalytic enhancement (BIO) (fold over background); higher = more active; k-Seq, kA / k0A0; sequences stand for … in GGGAAUGGAUCCACAUCUACGAAUUC…UUCACUGCAGACUUGACGAAGCUG
Outline: as §1

[4] = test system: biotinyl-Trp-oxazolone; test: self-aminoacylation, catalytic enhancement (BWO) (fold over background); higher = more active; k-Seq, kA / k0A0; sequences stand for … in GGGAAUGGAUCCACAUCUACGAAUUC…UUCACUGCAGACUUGACGAAGCUG
Outline: as §1

[5] = test system: biotinyl-Leu-oxazolone; test: self-aminoacylation, catalytic enhancement (BLO) (fold over background); higher = more active; k-Seq, kA / k0A0; sequences stand for … in GGGAAUGGAUCCACAUCUACGAAUUC…UUCACUGCAGACUUGACGAAGCUG
Outline: as §1

[6] = test system: biotinyl-Val-oxazolone; test: self-aminoacylation, catalytic enhancement (BVO) (fold over background); higher = more active; k-Seq, kA / k0A0; sequences stand for … in GGGAAUGGAUCCACAUCUACGAAUUC…UUCACUGCAGACUUGACGAAGCUG
Outline: as §1

Row | Sequence | self-aminoacylation [1] | self-aminoacylation [2] | self-aminoacylation [3] | self-aminoacylation [4] | self-aminoacylation [5] | self-aminoacylation [6]
1 | AAGCUUGCUAAUAGUCGCAAU [Fam3.1 aminoacylation ribozyme variant] | 2.34 | 2.59 | 2.93 | 2.66 | – | –
2 | AUUCACGUAGGUCAUCGGGCG [Fam2.2 aminoacylation ribozyme variant] | 2.41 | 5.97 | 2.07 | – | 2.57 | 2.56
3 | AUCACCCUGGUCAUCGAGGGA [Fam2.1 aminoacylation ribozyme variant] | 2.2 | 12.5 | – | 2.94 | 3.12 | 2.03
4 | CUACUUCAAACAUUCGGGCUG [Fam1A.1 aminoacylation ribozyme variant] | 2.06 | – | 2.24 | – | – | 2.14
5 | AUAACCCUGGUCAUCGAGUAA [Fam2.1 aminoacylation ribozyme variant] | 3.64 | 7.47 | – | 2.47 | 3.46 | –
6 | AUUCACCUCGGUCAUCGGCUG [Fam2.2 aminoacylation ribozyme variant] | – | 8.33 | – | 2.02 | – | 2.65
7 | UUUCACCUAGGUAAUCGGGUG [Fam2.2 aminoacylation ribozyme variant] | 2.66 | 13.1 | 2.1 | 3.75 | 2.27 | –
8 | AUCACCCUGGUCAUCGAGCGA [Fam2.1 aminoacylation ribozyme variant] | 2.16 | – | 2.01 | 2.62 | 3.35 | 2.53
9 | CCACACUUCACGCAAUCGGCC [Fam1B.1 aminoacylation ribozyme variant] | 2.28 | 13.9 | 2.2 | 4.2 | – | 3.47
10 | AUUCACCGAGGUCAUCGGGUC [Fam2.2 aminoacylation ribozyme variant] | – | 7.57 | 2.18 | – | 2.52 | 2.71
11 | CCACUUCAAACAAUCGGUCUC [Fam1A.1 aminoacylation ribozyme variant] | 2.08 | 75.8 | – | 42.2 | 2.13 | –
12 | CCACGCUUCAAGCAAUCGGCC [Fam1B.1 aminoacylation ribozyme variant] | – | 7.98 | – | 8.15 | – | 2.77
13 | AUUCACCUAGGUCAGCGUGUG [Fam2.2 aminoacylation ribozyme variant] | 2.16 | 11 | – | – | 2.77 | –
14 | AAGCUUGCUAUUAGUCGCAAG [Fam3.1 aminoacylation ribozyme variant] | 2.23 | 2.62 | – | – | 2.48 | –
15 | AUUACCCUGGUAAUCGUGUGA [Fam2.1 aminoacylation ribozyme variant] | 3.48 | 22.2 | – | 4.1 | 3.58 | –
16 | CCACACUUCGCGCAAUCGGUC [Fam1B.1 aminoacylation ribozyme variant] | – | 10.5 | 2.21 | 2.77 | 2.41 | 2.51
17 | AUUUCCCUGGUCAUCGUGUGA [Fam2.1 aminoacylation ribozyme variant] | 3.61 | 27.1 | – | 4.8 | 3.65 | –
18 | AUUACCCUGGUCAUUGAGUGG [Fam2.1 aminoacylation ribozyme variant] | 2.54 | 2.08 | – | 3.09 | 2.66 | –
19 | AGUCACCUAGGUCAUCUGGUG [Fam2.2 aminoacylation ribozyme variant] | 2.31 | 15.2 | – | 2.38 | 2.59 | –
20 | AUUACCCAGGCCAUCGAGUGA [Fam2.1 aminoacylation ribozyme variant] | 2.52 | 11 | – | – | 2.69 | –
21 | AUUAACCUAGGUCAUCUGGUG [Fam2.2 aminoacylation ribozyme variant] | 2.59 | 13.6 | – | 2.7 | 3.34 | –
22 | AUUACCCUGGUCCUCGUGUGA [Fam2.1 aminoacylation ribozyme variant] | 2.89 | 14 | – | 2.73 | 2.88 | –
23 | AAGGUCGCUAAUAGUCGCAAG [Fam3.1 aminoacylation ribozyme variant] | – | 2.86 | – | 2.4 | – | 2.13
24 | CGACACUUCAAGCAAUCGGUG [Fam1B.1 aminoacylation ribozyme variant] | 2.37 | – | 2.4 | – | 2.22 | 2.27
25 | AAGUAUGCUAAUAGUCGCGAG [Fam3.1 aminoacylation ribozyme variant] | – | 5.66 | 2.14 | 4.06 | 2.21 | –
26 | CUACUGCAAACAAUCGGCCUG [Fam1A.1 aminoacylation ribozyme variant] | 2.1 | 3.31 | – | 2.81 | 2.27 | 2.27
27 | CUUCACCUAGAUCAUCGGGUG [Fam2.2 aminoacylation ribozyme variant] | 3.54 | 8.35 | – | 3.41 | 2.86 | 2.12
28 | AUUACCGUGGUGAUCGAGUGA [Fam2.1 aminoacylation ribozyme variant] | 3.87 | 15.6 | – | 5.02 | 3.67 | 2.31

Row | Sequence | self-aminoacylation [1] | self-aminoacylation [2] | self-aminoacylation [3] | self-aminoacylation [4] | self-aminoacylation [5] | self-aminoacylation [6]
29 | AUUCACCUAGGUCUUCAGGUG [Fam2.2 aminoacylation ribozyme variant] | 2.04 | 6.96 | – | – | 2.02 | –
30 | AUUGCCCUGGUCAUCGAGCGA [Fam2.1 aminoacylation ribozyme variant] | 2.55 | 3.91 | – | 3.11 | 3.48 | 2.33
31 | ACGUUUGCUAAUAGUCGCAAA [Fam3.1 aminoacylation ribozyme variant] | – | 2.87 | 2.01 | 2.36 | – | –
32 | GUUCACCUAGGUCAACGGGUG [Fam2.2 aminoacylation ribozyme variant] | 2.11 | 17.5 | – | 3.22 | 2.5 | –
33 | AUUACCCUGGUCAUCGAGCCA [Fam2.1 aminoacylation ribozyme variant] | 2.36 | 2.92 | 2.01 | 3.35 | 2.23 | –
34 | AUGACCCUGGUCAUCGAGGGA [Fam2.1 aminoacylation ribozyme variant] | 3.65 | 2.82 | – | – | 3.03 | –
35 | AUUCACUUAGUUCAUCGGGUG [Fam2.2 aminoacylation ribozyme variant] | 2.58 | 11.1 | 2.18 | 3.28 | 2.93 | –
36 | AAGUUCGCCAAUAGUCGCAAG [Fam3.1 aminoacylation ribozyme variant] | 2.18 | 2.83 | 2.29 | 2.98 | 2.67 | –
37 | AUUCACCUAGCUCAUCGGGUG [Fam2.2 aminoacylation ribozyme variant] | – | 7.85 | – | – | 2.05 | 2.1
38 | AUUCAGCUAGGUCAUCUGGUG [Fam2.2 aminoacylation ribozyme variant] | 2.3 | 13.4 | – | 2.25 | 2.35 | –
39 | ACUACCCUGGUCAUCGAGGGA [Fam2.1 aminoacylation ribozyme variant] | 3.62 | 2.42 | 2.12 | 3.04 | 3.13 | –
40 | AUUACCCUGGUUAUCGAGUGU [Fam2.1 aminoacylation ribozyme variant] | 2.66 | 3.12 | – | 3.92 | 2.57 | –
41 | CCACACGUCAAGCAAUCGGGC [Fam1B.1 aminoacylation ribozyme variant] | – | 2.86 | – | – | – | 2.23
42 | ACGUUUGCUAAUAGUCGCAUG [Fam3.1 aminoacylation ribozyme variant] | 2.14 | 3.06 | 2.21 | – | 2.5 | –
43 | AUUCACCUAAGUCAUCGGGUA [Fam2.2 aminoacylation ribozyme variant] | 2.44 | – | 2.81 | 2.8 | 3 | 2.62
44 | AUUCACCUAAGUCAUCGGGUU [Fam2.2 aminoacylation ribozyme variant] | 2.63 | 10.7 | – | – | 2.55 | –
45 | CCCCGCUUCAAGCAAUCGGUC [Fam1B.1 aminoacylation ribozyme variant] | 2.12 | 142 | – | 70.4 | 3.73 | 2.69
46 | AUUCACCUAGGGCAUCGGGGG [Fam2.2 aminoacylation ribozyme variant] | 2.65 | 7.22 | 2.98 | – | 3.63 | 2.93
47 | CCGCGCUUCAAGCAAUCGGUC [Fam1B.1 aminoacylation ribozyme variant] | 2.37 | 158 | – | 77.2 | 3.16 | 2.74
48 | AUACACCUAGGUCAACGGGUG [Fam2.2 aminoacylation ribozyme variant] | 2.09 | 6.06 | – | 2.02 | 2.79 | –
49 | AUUCACCUAGAUCAGCGGGUG [Fam2.2 aminoacylation ribozyme variant] | 2.39 | 11.7 | – | 2.88 | 3.1 | –
50 | AUUACCCUGGACUUCGAGUGA [Fam2.1 aminoacylation ribozyme variant] | 2.96 | 11.4 | – | 4.38 | 3.17 | 2.17
51 | AAGUCUGCUAAUAGUCGUAAG [Fam3.1 aminoacylation ribozyme variant] | 2.5 | 49.6 | – | 9.94 | – | –
52 | AUUACUCUGGUCAUCGUGUGA [Fam2.1 aminoacylation ribozyme variant] | 2.45 | 12.5 | – | 3.34 | 2.81 | –
53 | AAGCUUGCUUAUAGUCGCAAG [Fam3.1 aminoacylation ribozyme variant] | – | 3.55 | 2.13 | – | – | –
54 | AAUUUUGGUAAUAGUCGCAAG [Fam3.1 aminoacylation ribozyme variant] | 2.19 | 2.19 | 2.06 | – | – | –
55 | ACGUUUGCUAAUAGUCGCGAG [Fam3.1 aminoacylation ribozyme variant] | – | 10.4 | 2.65 | – | 2.48 | 2.12
